Assay: protein stability index of a GFP-peptide fusion (GPS, HEK-293T) (PSI 1-6); higher = more stable
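Further: lentivirally expressed fusions sorted by FACS into six bins by GFP to DsRed ratio, PSI derived from sequencing read proportions per bin multiplied by bin number.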

For DKLALCHLELTRKLQDLIKDVLRY, the protein stability index (parent: IOH26137_14, c terminus: a fixed tail appended) was 2.73.

LLARLRELEQQIWKERDEYITKVS gave a protein stability index (parent: IOH26053_32, c terminus: a fixed tail appended) of 1.67.

FSDPSQSDPETKDFWLNMAALTEA gave a protein stability index (parent: IOH26137_117, c terminus: a fixed tail appended) of 2.84.

In the case of VDVQTELYLEEIADRIIEVDMECQ, the protein stability index (parent: IOH27062_43, c terminus: a fixed tail appended) is reported as 2.16.

Protein FIDTYSDVGRYIDHYAAIKKAWDD has a protein stability index (parent: IOH26934_14, c terminus: a fixed tail appended) of 1.85.

KKLKIFAMPMQDIKMILKMVQLDS [PRAME WT] showed a protein stability index (parent: IOH26126_36, c terminus: a fixed tail appended) of 2.56.

For ILLVGYPPFWDEDQHRLYKQIKAG, the protein stability index (parent: IOH26807_35, c terminus: a fixed tail appended) was 2.33.

In the case of EVLRRLTSSVSCALDEAAAALTRM, the protein stability index (parent: IOH26350_34, c terminus: a fixed tail appended) is reported as 1.95.

QRLEEQERRHREEKERRKKQQWEI gave a protein stability index (parent: IOH27062_61, c terminus: a fixed tail appended) of 4.62.

In the case of KAASLARNLAKRRRTYLGGAAGRS, the protein stability index (parent: IOH27062_2, c terminus: a fixed tail appended) is reported as 2.6.

GGFPIIRDQIFRYVHDPECVATTG gave a protein stability index (parent: IOH26934_44, c terminus: a fixed tail appended) of 1.75.

In the case of PDVENEVKRLLRSDAEAVSTRWEV [TAF7L WT], the protein stability index (parent: IOH26414_44, c terminus: a fixed tail appended) is reported as 3.49.

Protein PLMGETQERERVLTHFSRRYCQCN has a protein stability index (parent: IOH26041_63, c terminus: a fixed tail appended) of 3.06.

With FHKDCASRVNNASYCPHCGEESSK the protein stability index (parent: IOH26527_103, c terminus: a fixed tail appended) was 3.47.

With TLVEAIKEQDGREVDWEYFYGLLF the protein stability index (parent: IOH26584_46, c terminus: a fixed tail appended) was 1.91.

In the case of AGGFQQRQGLKYCLPLTFCIHTGL, the protein stability index (parent: IOH26934_31, c terminus: a fixed tail appended) is reported as 2.73.

For AQVLMLGQILELPWKEETFLVLQS [FANCE WT], the protein stability index (parent: IOH26415_73, c terminus: a fixed tail appended) was 2.44.

Protein FGGTGIPFGESNGNGVHVCNVKYK has a protein stability index (parent: IOH26494_29, c terminus: a fixed tail appended) of 2.05.

Protein KTSLLDQLTNTSGTVIGVTSCIVI has a protein stability index (parent: IOH26431_56, c terminus: a fixed tail appended) of 3.09.

Protein FSPDFTLRNTLKSTSEDSLVKQEC has a protein stability index (parent: IOH26921_45, c terminus: a fixed tail appended) of 1.89.

With FLGSSFSPVRCGGPGDASPRGCGA the protein stability index (parent: IOH27052_23, c terminus: a fixed tail appended) was 1.95.

SARQGELQKVLLMLVDGIDPNFKM gave a protein stability index (parent: IOH26527_125, c terminus: a fixed tail appended) of 1.73.

Protein LELKFVSSLRRQFEFSVDSFQIVL has a protein stability index (parent: IOH26845_27, c terminus: a fixed tail appended) of 3.08.

In the case of HDPLWRRHCKKYWLISEEEKTQKN, the protein stability index (parent: IOH26934_9, c terminus: a fixed tail appended) is reported as 2.91.

CIQQILEAVLHCHQMGVVHRDLKP showed a protein stability index (parent: IOH26807_20, c terminus: a fixed tail appended) of 2.46.

MTVKPAKAASLARNLAKRRRTYLG gave a protein stability index (parent: IOH27062_1, c terminus: a fixed tail appended) of 2.85.

In the case of PSLLELAWEKLLAAFPNLANLSRT, the protein stability index (parent: IOH26494_68, c terminus: a fixed tail appended) is reported as 2.3.

Work on LELQRQREARKRALARKQAQEQLR yielded a protein stability index (parent: IOH27062_37, c terminus: a fixed tail appended) of 3.77.

With FISRTSIPNAASEEGDEDDWASNK the protein stability index (parent: IOH27052_73, c terminus: a fixed tail appended) was 4.02.

With CPIIRIPNRFLRGHRPPPARSGHR the protein stability index (parent: IOH26494_13, c terminus: a fixed tail appended) was 1.87.

Work on INPFTPDSLLLHSSGQCRRRKRTY yielded a protein stability index (parent: IOH27052_40, c terminus: a fixed tail appended) of 3.35.

In the case of EMVRFLLEAGADQEHKTDEMHTAL, the protein stability index (parent: IOH26350_70, c terminus: a fixed tail appended) is reported as 2.65.

GFSPIIGRFCGQQNPPVIKSSGRF gave a protein stability index (parent: IOH26431_19, c terminus: a fixed tail appended) of 2.17.

For FIPAKTGKDVATQILEGELFDFDL, the protein stability index (parent: IOH27062_49, c terminus: a fixed tail appended) was 1.77.

QSSGKILLCPLCQEEEQAETPMAP gave a protein stability index (parent: IOH26053_9, c terminus: a fixed tail appended) of 3.3.

For TRKLSPGKKRCKDIKRLLVNFMYL [SMG5 WT], the protein stability index (parent: IOH27102_46, c terminus: a fixed tail appended) was 2.32.

Work on FQEAMTHLQHKLICTRKPEEIRGG yielded a protein stability index (parent: IOH26845_36, c terminus: a fixed tail appended) of 2.91.

With LTHFSRRYCQCNPDDSTSEDGIHT the protein stability index (parent: IOH26041_65, c terminus: a fixed tail appended) was 3.23.

In the case of LQEPGVFSPTPPQQFQPAGTDQVC, the protein stability index (parent: IOH26591_36, c terminus: a fixed tail appended) is reported as 3.96.

In the case of SSKEEQKLIATSNKPAVKLLYNRS [KCTD10 WT], the protein stability index (parent: IOH25947_25, c terminus: a fixed tail appended) is reported as 4.05.

KLNCDPSRIYKPQTRLKRKQPVRK showed a protein stability index (parent: IOH26584_53, c terminus: a fixed tail appended) of 3.47.

YVKAKKSIDKDEEFAGSSPQSSKS showed a protein stability index (parent: IOH26921_28, c terminus: a fixed tail appended) of 3.04.

With ILGKVILWILHLLLECYIQYHHSK the protein stability index (parent: IOH26789_17, c terminus: a fixed tail appended) was 2.97.

For LSQMGAQSSGKILLCPLCQEEEQA, the protein stability index (parent: IOH26053_8, c terminus: a fixed tail appended) was 3.51.

In the case of EEINKNISDFGRQQLLPPFPSLHQ, the protein stability index (parent: IOH26527_40, c terminus: a fixed tail appended) is reported as 2.94.

Protein LRHSFQKQQREKTRWLNSGRGDEA has a protein stability index (parent: IOH25868_73, c terminus: a fixed tail appended) of 3.66.

With LEAAEVILEHAHRGEQTTSQVSWE the protein stability index (parent: IOH26591_31, c terminus: a fixed tail appended) was 4.39.

FTSSPSPFSSSSPENVEDSGLDSP showed a protein stability index (parent: IOH26137_77, c terminus: a fixed tail appended) of 1.88.

Protein FASDGDSGTCSPLRHSFQKQQREK has a protein stability index (parent: IOH25868_71, c terminus: a fixed tail appended) of 3.71.

For LWILHLLLECYIQYHHSKIRNRGY, the protein stability index (parent: IOH26789_18, c terminus: a fixed tail appended) was 2.02.

HLELTRKLQDLIKDVLRYGEEQLK showed a protein stability index (parent: IOH26137_15, c terminus: a fixed tail appended) of 2.46.

DEEERRRRVFDVPIRRRRCSRLF showed a protein stability index (parent: IOH26934_79, c terminus: native) of 2.81.

Protein YCNFNKYIPRRLEEAAMQKCLVTE [RSAD1 WT] has a protein stability index (parent: IOH26922_10, c terminus: a fixed tail appended) of 2.08.
